Results: article PMC4122391, “Analysis of Functions of VIP1 and Its Close Homologs in Osmosensory Responses of Arabidopsis thaliana”

How the values were obtained:
[1] = molecular target: T1, GST-VIP1ΔN164 (Arabidopsis thaliana, UniProt Q9MA75 165-341); assay: competition; EMSA, CYP707A1 probe, competitor 0.5 µM; Gel shift with DIG-labeled probes as in cited ref. 17; competitors 0.5 µM unless stated; binding buffer, pH and temperature not given; conditions: protein: recombinant; tags: N-terminal GST; chain copies: 2; blunt
T1 sequence: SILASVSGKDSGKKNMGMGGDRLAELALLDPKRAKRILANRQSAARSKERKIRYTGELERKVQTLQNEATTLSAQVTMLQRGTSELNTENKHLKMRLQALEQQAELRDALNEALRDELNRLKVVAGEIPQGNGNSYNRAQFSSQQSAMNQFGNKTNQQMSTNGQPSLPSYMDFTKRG

[2] = molecular target: T1, GST-VIP1ΔN164; assay: competition; EMSA, CYP707A1 probe; inhibits to same extent as A1; Gel shift with DIG-labeled probes as in cited ref. 17; competitors 0.5 µM unless stated; binding buffer, pH and temperature not given; conditions: protein: recombinant; tags: N-terminal GST; chain copies: 2; blunt

B1: A1 (dsDNA)
DNA 1: CTCTCAAATGAGCTGTCTCTC
DNA 2: GAGAGACAGCTCATTTGAGAG
B1: binds [1].

B2: A3 (dsDNA)
DNA 1: CTCTCAAATTAGCTGGCTCCA
DNA 2: TGGAGCCAGCTAATTTGAGAG
B2: binds [2].
